Experimental data as given in US20080219985A1.
Read-outs that look alike come from different tables or passages of the source.

Legend:
Test in all cases: cell-based or functional assay
GPCR73a receptor (human) [1] = molecular target: GPCR73a receptor (human) (UniProt Q8TCW9)
[2] = molecular target: GPCR73b receptor (Homo sapiens (Human)) (UniProt Q8NFJ6)
[3] = molecular target: PROK2 receptor on Wky12-22 cells (rat aortic smooth muscle cells) (rat)
GPCR73a receptor (human) [4] = molecular target: GPCR73a receptor (human) (UniProt Q8TCW9); remark: listed apart in the source
[5] = molecular target: GPCR73b receptor (Homo sapiens (Human)) (UniProt Q8NFJ6); remark: listed apart in the source

Chain of GPCR73a receptor (human) (Q8TCW9 whole entry): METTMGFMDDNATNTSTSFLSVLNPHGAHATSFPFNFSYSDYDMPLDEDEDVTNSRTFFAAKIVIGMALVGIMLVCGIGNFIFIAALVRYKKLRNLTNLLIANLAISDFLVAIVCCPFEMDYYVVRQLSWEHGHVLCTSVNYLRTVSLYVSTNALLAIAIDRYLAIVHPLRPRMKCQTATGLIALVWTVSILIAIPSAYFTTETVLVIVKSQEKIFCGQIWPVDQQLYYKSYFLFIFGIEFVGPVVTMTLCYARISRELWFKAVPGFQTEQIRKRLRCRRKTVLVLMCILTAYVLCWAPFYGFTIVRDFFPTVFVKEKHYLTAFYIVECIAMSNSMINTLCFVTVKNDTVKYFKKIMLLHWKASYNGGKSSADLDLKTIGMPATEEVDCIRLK
Chain of GPCR73b receptor (Homo sapiens (Human)) (Q8NFJ6 whole entry): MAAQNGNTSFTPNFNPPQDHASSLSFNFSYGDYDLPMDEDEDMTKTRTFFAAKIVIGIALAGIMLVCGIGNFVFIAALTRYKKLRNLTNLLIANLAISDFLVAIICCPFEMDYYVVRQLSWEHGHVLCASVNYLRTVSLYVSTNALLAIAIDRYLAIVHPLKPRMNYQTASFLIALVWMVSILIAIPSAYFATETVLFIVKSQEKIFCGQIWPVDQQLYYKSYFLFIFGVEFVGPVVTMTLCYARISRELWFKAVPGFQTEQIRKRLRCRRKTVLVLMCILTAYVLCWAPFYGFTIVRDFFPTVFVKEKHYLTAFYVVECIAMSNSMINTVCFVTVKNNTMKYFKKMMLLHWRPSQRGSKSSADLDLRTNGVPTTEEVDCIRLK

SRE-luciferase fold-induction at 1 ng/ml (fold-induction) (GPCR73a receptor (human) [1]): 1.2 | SRE-luciferase fold-induction at 3.2 ng/ml (fold-induction) (GPCR73a receptor (human) [1]): 1.6 | SRE-luciferase fold-induction at 10 ng/ml (fold-induction) (GPCR73a receptor (human) [1]): 2.5 | SRE-luciferase fold-induction at 32 ng/ml (fold-induction) (GPCR73a receptor (human) [1]): 5.8 | SRE-luciferase fold-induction at 100 ng/ml (fold-induction) (GPCR73a receptor (human) [1]): 11.4 | SRE-luciferase fold-induction at 320 ng/ml (fold-induction) (GPCR73a receptor (human) [1]): 24.4 | SRE-luciferase fold-induction at 1000 ng/ml (fold-induction) (GPCR73a receptor (human) [1]): 20 | SRE-luciferase fold-induction at 1 ng/ml (fold-induction) [2]: 1.1 | SRE-luciferase fold-induction at 3.2 ng/ml (fold-induction) [2]: 1.3 | SRE-luciferase fold-induction at 10 ng/ml (fold-induction) [2]: 1.8 | SRE-luciferase fold-induction at 32 ng/ml (fold-induction) [2]: 2.8 | SRE-luciferase fold-induction at 100 ng/ml (fold-induction) [2]: 5.6 | SRE-luciferase fold-induction at 320 ng/ml (fold-induction) [2]: 8.3 | SRE-luciferase fold-induction at 1000 ng/ml (fold-induction) [2]: 8.4 | EC50 of GROα secretion from Wky12-22 cells [3]: 2.94 ng/mL | SRE-luciferase fold-induction at 1 ng/ml (fold-induction) (GPCR73a receptor (human) [4]): 0.95 | SRE-luciferase fold-induction at 3.2 ng/ml (fold-induction) (GPCR73a receptor (human) [4]): 1.3 | SRE-luciferase fold-induction at 10 ng/ml (fold-induction) (GPCR73a receptor (human) [4]): 2.6 | SRE-luciferase fold-induction at 32 ng/ml (fold-induction) (GPCR73a receptor (human) [4]): 7.2 | SRE-luciferase fold-induction at 320 ng/ml (fold-induction) (GPCR73a receptor (human) [4]): 20.5 | SRE-luciferase fold-induction at 1000 ng/ml (fold-induction) (GPCR73a receptor (human) [4]): 15 | SRE-luciferase fold-induction at 3.2 ng/ml (fold-induction) [5]: 1.4 | SRE-luciferase fold-induction at 32 ng/ml (fold-induction) [5]: 2.7 | SRE-luciferase fold-induction at 100 ng/ml (fold-induction) [5]: 4.1 | SRE-luciferase fold-induction at 320 ng/ml (fold-induction) [5]: 5.8 | SRE-luciferase fold-induction at 1000 ng/ml (fold-induction) [5]: 6.1
B1: human PROK1 purchased from PeproTech (ligand)
chain: AVITGACERDVQCGAGTCCAISLWLRGLRMCTPLGREGEECHPGSHKVPFFRKRKHHTCPCLPNLLCSRFPDGRYRCSMDLKNINF
